PMC9174178 (Cell Reports, 2022)

Legend:
[1] = molecular target: T1, BM-4831-CoV receptor-binding domain (RBD) (Bat coronavirus BM48-31/BGR/2008); assay: ELISA
[2] = molecular target: W1V1-CoV receptor-binding domain (RBD) (Bat SARS-like coronavirus WIV1, UniProt U5WI05); assay: ELISA
[3] = molecular target: ZC45-CoV receptor-binding domain (RBD) (Bat SARS-like coronavirus ZC45, UniProt A0A2R3SUW7); assay: ELISA
[4] = molecular target: HKU3-1-CoV receptor-binding domain (RBD) (Bat coronavirus HKU3-1, UniProt Q3LZX1); assay: ELISA
[5] = molecular target: YN2013-CoV receptor-binding domain (RBD) (BtRs-BetaCoV/YN2013, UniProt A0A0U1WJY8); assay: ELISA
[6] = molecular target: SHC014-CoV receptor-binding domain (RBD) (Bat SARS-like coronavirus RsSHC014, UniProt U5WLK5); assay: ELISA
[7] = molecular target: Rs4081-CoV receptor-binding domain (RBD) (Bat SARS-like coronavirus Rs4081, UniProt A0A2D1PX44); assay: ELISA
[8] = molecular target: Rs4092-CoV receptor-binding domain (RBD) (Bat SARS-like coronavirus Rs4092, UniProt A0A2D1PX37); assay: ELISA
[9] = molecular target: BtkY72-CoV receptor-binding domain (RBD) (Bat coronavirus BtKY72, UniProt A0A3Q8AKM0); assay: ELISA
[10] = molecular target: Rp3-CoV receptor-binding domain (RBD) (Bat SARS-like coronavirus Rp3/2004, UniProt Q3I5J5); assay: ELISA
[11] = molecular target: RaTG13-CoV receptor-binding domain (RBD) (Bat coronavirus RaTG13, UniProt A0ABF7PLN6); assay: ELISA
[12] = molecular target: pangolin17-CoV receptor-binding domain (RBD) (Pangolin coronavirus (pangolin17, …)); assay: ELISA
[13] = molecular target: Shaanxi2011-CoV receptor-binding domain (RBD) (Bat coronavirus Rp/Shaanxi2011, UniProt R9QTA0); assay: ELISA
[14] = molecular target: Yun11-CoV receptor-binding domain (RBD) (Bat coronavirus Cp/Yunnan2011, UniProt R9QTH3); assay: ELISA
[15] = molecular target: Rf1-CoV receptor-binding domain (RBD) (Bat SARS CoV Rf1/2004, UniProt Q0QDZ0); assay: ELISA
[16] = molecular target: Rs7327-CoV receptor-binding domain (RBD) (Bat SARS-like coronavirus Rs7327, UniProt A0A2D1PXC0); assay: ELISA
[17] = molecular target: T1, BM-4831-CoV receptor-binding domain …; assay: SPR
[18] = molecular target: T2, SARS-CoV receptor-binding domain (RBD) (SARS-CoV (AAP13441.1), UniProt P59594); assay: SPR
[19] = molecular target: T2, SARS-CoV receptor-binding domain (RBD)
[20] = molecular target: SARS-CoV-2 receptor-binding domain (RBD) (SARS-CoV-2 (MN985325.1), UniProt P0DTC2)

Binder | binding result [1] | binding result [2] | binding result [3] | binding result [4] | binding result [5] | binding result [6] | binding result [7] | binding result [8] | binding result [9] | binding result [10] | binding result [11] | binding result [12] | binding result [13] | binding result [14] | binding result [15] | binding result [16] | Kd [17] [nM] | Kd [18] [nM] | binding result [19] | binding result [20]
psNb 1-23 (VHH) VHH: QVQLVESGGGLVQAGGSLRLSCAASGRTDSISDMGWFRQAPGKEREFVAVVGWSGGGTDYAHSVKGRFTISRDNAKNTVYLQMNSLKPEDTAVYYCAVGSLRVGSFSVEYWGQGTQVTVSS | binds | – | – | – | – | – | – | – | – | – | – | – | – | – | – | – | – | – | – | –
psNb 2-65 (VHH) VHH: HVQLVESGGGLVQAGGSLRLSCAASGTISTLNAMGWYRQAPGKQRELLASISNLGTTYHADSVAGRFTISRGSAKNTVNLQMNSLKPDDTAVYYCNTRVLEGGTQIRDYWGQGTQVTVSS | binds | – | – | – | – | – | – | – | – | – | – | – | – | – | – | – | – | – | – | –
psNb 2-31 (VHH) VHH: QVQLVESGGGLVQAGESLRLSCAASKPTFRNFAAGWFRQTPGKDREFVAVIEYDGDSAYYADSVKGRFTISRDNAKNTVYLQMNRLKPGDTAVYICAIGGNHYDPSKYYTADEYDYWGQGTQVTVSS | – | binds | binds | binds | binds | binds | binds | binds | binds | binds | binds | binds | binds | binds | binds | binds | 3.6 | 0.00396 | – | –
psNb 2-34 (VHH) VHH: HVQLVESGGGLVQAGGSLRLSCAASGRTFSRYAAGWFRQAPGKEREFVAVIEWDGDSAYYADPVKGRFTISRDNAKNTVYLQMNRLKPEDTAVYICAVGGNHYSRSKYYNLDEYDDWGQGTQVTVSS | binds | binds | binds | binds | binds | binds | binds | binds | binds | binds | binds | binds | binds | binds | binds | binds | – | – | – | –
psNb 2-45 (VHH) VHH: QVQLVESGGGLVQAGGSLRLSCTASGYDFSILAIAWYRQAPGKERELVAAISRVGSTDYADSVKGRFTISRDNTKNTVSLQMDSLKPEDTAVYYCNAGIPMTTVLSGLGFWGQGTQVTVSS | – | binds | binds | binds | binds | binds | binds | binds | binds | binds | binds | binds | binds | binds | binds | binds | 0.044 | 304 | – | –
1-28 (VHH) VHH: QVQLVESGGGLVQAGGSLRLSCAVSGRTVSTYGMAWFRQTPGKKRDFVATITRSEGTTFYADSVKGRFTISRDNAKNTVYLQMNSLKIEDTAVYYCAVRRDSSWGYSRDLFEYDDWGQGTQVTVSS | – | – | – | – | – | – | – | – | – | – | – | – | – | – | – | – | – | – | binds | binds
psNb 1-22 (VHH) VHH: HVQLVESGGGLVQPGGSLRLSCAASGRSFNSYLMGWFRQAPGKEREFVAWISGSPHDIIRYRDSVKDRFTISRDNAKNTVYLQMNSLKPVDTAVYYCAVGSLRVGSFSPDYWGQGTQVTVSS | binds | – | – | – | – | – | – | – | – | – | – | – | – | – | – | – | – | – | – | –
psNb 2-38 (VHH) VHH: QVQLVESGGGLVQAGGSLRLSCAAAARFSTSAMGWFRQAPGKEREFVAAISWSNTNTHYADTVKGRFTISADTAKETVDLQMNSLKPEDTAVYYCVQGGWGIRQPIIVDYWGKGTQVTVSS | binds | – | – | – | – | – | – | – | – | – | – | – | – | – | – | – | – | – | – | –
